Data taken from patent US20200308299A1, “ANTI-GPC-1 ANTIBODY” (National University Corporation Kochi University, priority 2017, published 2020).
Numbering of substitutions follows the chain as printed.

B1: clone 01a026: anti-human Glypican-1 antibody, heavy chain SEQ ID NO: 146, light chain SEQ ID NO: 148 (antibody)
heavy: MKHLWFFLLLVAAPRWVLSQVHLQQSGAELVRPGTSVKMSCKAAGYTFTNYWIGWVKQRPGHGLEWIGDIYPGGGYTHYNEKFKGKATLTADTSSSTAYMQLSSLTSEDSAIYYCARERVYYDGSRFFDVWGAGTTVTVSSAKTTAPSVYPLAPVCGDTTGSSVTLGCLVKGYFPEPVTLTWNSGSLSSGVHTFPAVLQSDLYTLSSSVTVTSSTWPSQSITCNVAHPASSTKVDKKIEPRGPTIKPCPPCKCPAPNLLGGPSVFIFPPKIKDVLMISLSPIVTCVVVDVSEDDPDVQISWFVNNVEVHTAQTQTHREDYNSTLRVVSALPIQHQDWMSGKEFKCKVNNKDLPAPIERTISKPKGSVRAPQVYVLPPPEEEMTKKQVTLTCMVTDFMPEDIYVEWTNNGKTELNYKNTEPVLDSDGSYFMYSKLRVEKKNWVERNSYSCSVVHEGLHNHHTTKSFSRTPGK
light: MRLLAQLLGLLMLWVPGSSGDIVMSQSPKFLPVSAGDRVTMTCKASQSVGNNVAWYQQKPGQSPKLLIYYASNRYTGVPDRFTGSGSGTDFTFTISSVQVEDLAVYFCQQHYSSPWTFGGGTKLEIKRADAAPTVSIFPPSSEQLTSGGASVVCFLNNFYPKDINVKWKIDGSERQNGVLNSWTDQDSKDSTYSMSSTLTLTKDEYERHNSYTCEATHKTSTSPIVKSFNRNEC
B2: clone 01a030: anti-human Glypican-1 antibody, heavy chain SEQ ID NO: 154, light chain SEQ ID NO: 156 (antibody)
heavy: B1 heavy with H22Q, F127Y
light: B1 light with V23K, S25T
B3: clone 01a009: anti-human Glypican-1 antibody, heavy chain SEQ ID NO: 150, light chain SEQ ID NO: 152 (antibody)
heavy: MKHLWFFLLLVAAPRWVLSEVQLQQSGPELVKPGASVEISCKASGYSFTGYFMNWVKQSQGKSLEWIGRINPDNGDIFYNQKFKGKATLTVDKSSSTAHMELRSLTSEDSAVYYCARSWNWYFDVWGAGTTVTVSSAKTTAPSVYPLAPVCGDTTGSSVTLGCLVKGYFPEPVTLTWNSGSLSSGVHTFPAVLQSDLYTLSSSVTVTSSTWPSQSITCNVAHPASSTKVDKKIEPRGPTIKPCPPCKCPAPNLLGGPSVFIFPPKIKDVLMISLSPIVTCVVVDVSEDDPDVQISWFVNNVEVHTAQTQTHREDYNSTLRVVSALPIQHQDWMSGKEFKCKVNNKDLPAPIERTISKPKGSVRAPQVYVLPPPEEEMTKKQVTLTCMVTDFMPEDIYVEWTNNGKTELNYKNTEPVLDSDGSYFMYSKLRVEKKNWVERNSYSCSVVHEGLHNHHTTKSFSRTPGK
light: MRLLAQLLGLLMLWVPGSSGDIQMTQSPASLSASVGETVTITCRASENIYSYLAWYQQKQGKSPQLLVYNAKTLAEGVPSRFSGSGSGTQFSLKINSLQPEDFGSYYCQHHYGTPYTFGSGTKLEIKRADAAPTVSIFPPSSEQLTSGGASVVCFLNNFYPKDINVKWKIDGSERQNGVLNSWTDQDSKDSTYSMSSTLTLTKDEYERHNSYTCEATHKTSTSPIVKSFNRNEC
B4: clone 01a016: anti-human Glypican-1 antibody, heavy chain SEQ ID NO: 134, light chain SEQ ID NO: 136 (antibody)
heavy: MKHLWFFLLLVAAPRWVLSQVHLQQSGPELVKPGASVKISCKASGYTFTDYYINWVKQKPGQGLEWIGYIDPYNDGSKYNEKFKGKATLTSDKSSSTAYMELSSLTSEDSAVYYCARTPYYSFYSYGFYFDYWGQGTTLTVSSAKTTAPSVYPLAPVCGDTTGSSVTLGCLVKGYFPEPVTLTWNSGSLSSGVHTFPAVLQSDLYTLSSSVTVTSSTWPSQSITCNVAHPASSTKVDKKIEPRGPTIKPCPPCKCPAPNLLGGPSVFIFPPKIKDVLMISLSPIVTCVVVDVSEDDPDVQISWFVNNVEVHTAQTQTHREDYNSTLRVVSALPIQHQDWMSGKEFKCKVNNKDLPAPIERTISKPKGSVRAPQVYVLPPPEEEMTKKQVTLTCMVTDFMPEDIYVEWTNNGKTELNYKNTEPVLDSDGSYFMYSKLRVEKKNWVERNSYSCSVVHEGLHNHHTTKSFSRTPGK
light: MRLLAQLLGLLMLWVPGSSGDIVLTQSPASLAVSLGQRATISCRASKSVSTSSYSYMHWYQQKPGQPPKLLIKYASYLESGVPARFSGSGSGTDFTLNIHPVEEEDAATYYCQHSREFPLTFGAGTKLELKRADAAPTVSIFPPSSEQLTSGGASVVCFLNNFYPKDINVKWKIDGSERQNGVLNSWTDQDSKDSTYSMSSTLTLTKDEYERHNSYTCEATHKTSTSPIVKSFNRNEC
B5: clone 4: anti-Glypican-1 antibody, heavy chain SEQ ID NO: 198, light chain SEQ ID NO: 200; sequence from WO 2015/098112 (antibody)
heavy: AVTLDESGGGLQTPGRALSLVCKASGFTFSRYAMYWVRQAPGKGLEFVAGIGNTGRYTGYGSAVKGRATISRDSGQSTVRLQLNNLRAEDTGNYYCAKSVSPYCCDAADIDAWGHGTEVIVSS
light: ASTQPSSVSANPGETVKITCSGGSSGYAYGWYQQKSPGSAPVTLLYSNNNRPSDIPSRFSGSKSGSTATLTITGVQAEDEAVYFCGSVDSSSYAGIFGAGTTLTVL

Tested on: TE14 cells
Assay: ADC assay combining anti-GPC-1 antibody and MMAF binding secondary antibody, TE14 cells
Type: cell-based
Conditions: primary antibody plus MMAF secondary antibody
Protocol: FIG. 1 depicts a schematic diagram of an ADC used in an assay. This Example used a secondary antibody (MORADEC) to the anti-GPC1 antibody made in Example 1, to which an anticancer agent (MMAF) was bound via a linker.
2000 TE14 cells were added to a 96-well plate at 80 μl. The cells were cultured overnight at 37° C. in a 5% CO2 incubator. The next day, 10 μl of an anticancer agent bound secondary antibody and 10 μl of a primary antibody concentrated 10-fold relative to the final concentration was added to each well, so that the total amount was 100 μl. The cells were cultured for 6 days at 37° C. in a 5% CO2 incubator. The cell viability was measured by using a CellTiter-Glo Luminescent Cell Viability Assay reagent to detect the amount of ATP. RPMI1640+10% FBS+1% PS was used as the medium. The final concentrations of the primary antibody were 0, 0.004, 0.0156, 0.0625, 0.25, and 1.0 nM. 2 μg/ml of Fab-aMFc-CL-MMAF (model number: AM202AF-50, Moradec) was used as the secondary antibody.

EC50 values against TE14 cells, excellent EC50 values:
B1
B2
B3
B4
B5

Tested on: DU145 cells
Assay: ADC assay combining anti-GPC-1 antibody and MMAF binding secondary antibody in DU145 cells
Type: cell-based
Conditions: primary antibody plus MMAF secondary antibody, 3 days
Protocol: 2000 DU145 cells were added to a 96-well plate at 80 μl. The cells were cultured overnight at 37° C. in a 5% CO2 incubator. The next day, 10 μl each of anticancer agent binding secondary antibody (2 μg/ml) and primary antibody concentrated 10-fold relative to the final concentration was added to each well, so that the total amount was 100 μl. The cells were cultured for 3 days at 37° C. in a 5% CO2 incubator. The cell viability was measured by using a CellTiter-Glo Luminescent Cell Viability Assay reagent to detect the amount of ATP. RPMI1640+10% FBS+1% PS was used as the medium. The final concentrations of the primary antibodies were […]. 2 μg/ml of Fab-aMFc-CL-MMAF (model number AM202AF-50, Moradec) was used as the secondary antibody. The EC50 value was analyzed with GraphPad Prism 6. The same experiment was conducted using 4000 MDA-MB231 cells as the control.

EC50 values against DU145 cells, excellent EC50 values:
B1
B2
B3
B4
B5
